Test results: US20170122932A1 (MEDICAL AND BIOLOGICAL LABORATORIES, published 2017)

Assays:
mAG1-Cyclin D1 = molecular target: T1, mAG1-Cyclin D1 (UniProt P24385 1-295); test: fluorescent foci in HEK293 cells expressing mAG1-Cyclin D1, p21-PB1 and CDK4-PB1
T1 construct: whole, on cells; also called hmAG1-Cyclin D1

[1] = molecular target: the molecule itself; test: fluorescent foci in HEK293 cells co-expressing PB1-mAG1-FKBP12, 500 nM rapamycin; homodimer formation of CD80
Experimental: (§1) (A) CD80-FRB and PB1-mAG1-FKBP12; and [0651] (B) CD2-FRB and PB1-mAG1-FKBP12.
(§2) Specifically, first, HEK293 cells were cultured in a culture solution (DMEM high glucose, 10% FBS, 1% penicillin-streptomycin). Then, on the day before the transfection, the cells were seeded onto an 8-well chamber, and cultured in 100 μL of the culture solution per well. Subsequently, a DNA solution prepared by mixing 200 ng of each of the plasmids was diluted with 10 μL of OptiMEM. Thereafter, 0.8 μL of Fugene HD was added thereto and then stirred. The resultant was further mixed with 90 μl of the culture solution. After that, the obtained mixture solution was added to the cultured cells and cultured for 20 hours.

[2] = molecular target: the molecule itself; test: fluorescent foci in HEK293 cells co-expressing PB1-mAG1-FKBP12, 500 nM rapamycin; negative control for homodimer formation
Experimental: as §1, §2

T1 sequence (P24385 other isoform, or with tags, fused parts or gaps): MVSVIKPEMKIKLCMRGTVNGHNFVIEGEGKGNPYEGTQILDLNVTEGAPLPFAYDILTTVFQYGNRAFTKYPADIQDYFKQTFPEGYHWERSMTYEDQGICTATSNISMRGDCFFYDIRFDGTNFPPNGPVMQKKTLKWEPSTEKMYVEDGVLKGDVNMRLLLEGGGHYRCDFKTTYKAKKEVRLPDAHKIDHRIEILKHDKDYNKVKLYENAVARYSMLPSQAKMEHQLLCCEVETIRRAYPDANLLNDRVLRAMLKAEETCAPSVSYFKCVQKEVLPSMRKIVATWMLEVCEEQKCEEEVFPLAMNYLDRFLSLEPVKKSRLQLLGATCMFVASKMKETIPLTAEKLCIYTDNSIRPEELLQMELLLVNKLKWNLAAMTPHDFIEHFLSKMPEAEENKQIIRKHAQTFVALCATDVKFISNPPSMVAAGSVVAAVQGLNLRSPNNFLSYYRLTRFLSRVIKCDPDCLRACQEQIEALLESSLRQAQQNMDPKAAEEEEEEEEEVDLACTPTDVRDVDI

B1: CDK4-PB1 (other, not shown: small tags and cut ends)
chain: ATSRYEPVAEIGVGAYGTVYKARDPHSGHFVALKSVRVPNGGGGGGGLPISTVREVALLRRLEAFEHPNVVRLMDVCATSRTDREIKVTLVFEHVDQDLRTYLDKAPPPGLPAETIKDLMRQFLRGLDFLHANCIVHRDLKPENILVTSGGTVKLADFGLARIYSYQMALTPVVVTLWYRAPEVLLQSTYATPVDMWSVGCIFAEMFRRKPLFCGNSEADQLGKIFDLIGLPPEDDWPRDVSLPRGAFPPRGPRPVQSVVPEMEESGAQLLLEMLTFNPHKRISAFRALQHSYLHKDEGNPEMASLTVKAYLLGKEDAAREIRRFSFCCSPEPEAEAEAAAGPGPCERLLSRVAALFPALRPGGFQAHYRDEDGDLVAFSSDEELTMAMSYVKDDIFRIYIKEK
notes: whole, on cells
mAG1-Cyclin D1
  binding result: binds

B2: CD80-FRB (other, not shown: small tags and cut ends)
chain: VIHVTKEVKEVATLSCGHNVSVEELAQTRIYWQKEKKMVLTMMSGDMNIWPEYKNRTIFDITNNLSIVILALRPSDEGTYECVVLKYEKDAFKREHLAEVTLSVKADFPTPSISDFEIPTSNIRRIICSTSGGFPEPHLSWLENGEELNAINTTVSQDPETELYAVSSKLDFNMTTNHSFMCLIKYGHLRVNQTFNWNTTKQEHFPDNLLPSWAITLISVNGIFVICCLTYCFAPRCRERRRNERLRRESVRPVEMWHEGLEEASRLYFGERNVKGMFEVLEPLHAMMERGPQTLKETSFNQAYGRDLMEAQEWCRKYMKSGNVKDLTQAWDLYYHVFRRISKQ
notes: whole, on cells; In the assay it was joined by rapamycin to PB1-mAG1-FKBP12
[1]
  binding result: binds

B3: CD2-FRB (other, not shown: small tags and cut ends)
chain: KEITNALETWGALGQDINLDIPSFQMSDDIDDIKWEKTSDKKKIAQFRKEKETFKEKDTYKLFKNGTLKIKHLKTDDQDIYKVSIYDTKGKNVLEKIFDLKIQERVSKPKISWTCINTTLTCEVMNGTDPELNLYQDGKHLKLSQRVITHKWTTSLSAKFKCTAGNKVSKESSVEPVSCPEKGLDIYLIIGICGGGSLLMVFVALLVFYITKRKKQRSRRNDEELETRAHRVATEERGRKPHQIPASTPQNPATSQHPPPPPGHRSQAPSHRPPPPGHRVQHQPQKRPPAPSGTQVHQQKGPPLPRPRVQPKPPHGAAENSLSPSSNEMWHEGLEEASRLYFGERNVKGMFEVLEPLHAMMERGPQTLKETSFNQAYGRDLMEAQEWCRKYMKSGNVKDLTQAWDLYYHVFRRISKQ
notes: whole, on cells
[2]
  binding result: no binding
